Several values for one entry are separate records, joined by “and”; a condition that tells them apart may be missing. Equal entries are not always repeated.
How the values were obtained:
[1] = biological target: the molecule itself; test: negative-stain single-particle electron microscopy
[2] = biological target: the molecule itself; test: negative-stain single-particle electron microscopy; remark: listed apart in the source

Protein	stoichiometry N [1]	oligomeric state (%), heptamer [2]	oligomeric state (%), hexamer [2]	oligomeric state (%), broken ring [2]
Wild-type TWINKLE lacking the mitochondrial targeting sequence (residues 1-42) (enzyme, human, UniProt Q96RR1 43-684, looked up) ETLQALDMPVLPVTATEIRQYLRGHGIPFQDGHSCLRALSPFAESSQLKGQTGVTTSFSLFIDKTTGHFLCMTSLAEGSWEDFQASVEGRGDGAREGFLLSKAPEFEDSEEVRRIWNRAIPLWELPDQEEVQLADTMFGLTKVTDDTLKRFSVRYLRPARSLVFPWFSPGGSGLRGLKLLEAKCQGDGVSYEETTIPRPSAYHNLFGLPLISRRDAEVVLTSRELDSLALNQSTGLPTLTLPRGTTCLPPALLPYLEQFRRIVFWLGDDLRSWEAAKLFARKLNPKRCFLVRPGDQQPRPLEALNGGFNLSRILRTALPAWHKSIVSFRQLREEVLGELSNVEQAAGLRWSRFPDLNRILKGHRKGELTVFTGPTGSGKTTFISEYALDLCSQGVNTLWGSFEISNVRLARVMLTQFAEGRLEDQLDKYDHWADRFEDLPLYFMTFHGQQSIRTVIDTMQHAVYVYDICHVIIDNLQFMMGHEQLSTDRIAAQDYIIGVFRKFATDNNCHVTLVIHPRKEDDDKELQTASIFGSAKASQEADNVLILQDRKLVTGPGKRYLQVSKNRFDGDVGVFPLEFNKNSLTFSIPPKNKARLKKIKDDTGPVAKKPSSGKKGATTQNSEICSGQAPTPDQPDTSKRSK	6 and 7	41.1%	58.9%	–
S369P TWINKLE (enzyme, human, UniProt Q96RR1 43-684, looked up) ETLQALDMPVLPVTATEIRQYLRGHGIPFQDGHSCLRALSPFAESSQLKGQTGVTTSFSLFIDKTTGHFLCMTSLAEGSWEDFQASVEGRGDGAREGFLLSKAPEFEDSEEVRRIWNRAIPLWELPDQEEVQLADTMFGLTKVTDDTLKRFSVRYLRPARSLVFPWFSPGGSGLRGLKLLEAKCQGDGVSYEETTIPRPSAYHNLFGLPLISRRDAEVVLTSRELDSLALNQSTGLPTLTLPRGTTCLPPALLPYLEQFRRIVFWLGDDLRSWEAAKLFARKLNPKRCFLVRPGDQQPRPLEALNGGFNLSRILRTALPAWHKSIVPFRQLREEVLGELSNVEQAAGLRWSRFPDLNRILKGHRKGELTVFTGPTGSGKTTFISEYALDLCSQGVNTLWGSFEISNVRLARVMLTQFAEGRLEDQLDKYDHWADRFEDLPLYFMTFHGQQSIRTVIDTMQHAVYVYDICHVIIDNLQFMMGHEQLSTDRIAAQDYIIGVFRKFATDNNCHVTLVIHPRKEDDDKELQTASIFGSAKASQEADNVLILQDRKLVTGPGKRYLQVSKNRFDGDVGVFPLEFNKNSLTFSIPPKNKARLKKIKDDTGPVAKKPSSGKKGATTQNSEICSGQAPTPDQPDTSKRSK	6 and 7	41.6%	13.2%	45.2%
P335L TWINKLE (enzyme, human, UniProt Q96RR1 43-684, looked up) ETLQALDMPVLPVTATEIRQYLRGHGIPFQDGHSCLRALSPFAESSQLKGQTGVTTSFSLFIDKTTGHFLCMTSLAEGSWEDFQASVEGRGDGAREGFLLSKAPEFEDSEEVRRIWNRAIPLWELPDQEEVQLADTMFGLTKVTDDTLKRFSVRYLRPARSLVFPWFSPGGSGLRGLKLLEAKCQGDGVSYEETTIPRPSAYHNLFGLPLISRRDAEVVLTSRELDSLALNQSTGLPTLTLPRGTTCLPPALLPYLEQFRRIVFWLGDDLRSWEAAKLFARKLNPKRCFLVRLGDQQPRPLEALNGGFNLSRILRTALPAWHKSIVSFRQLREEVLGELSNVEQAAGLRWSRFPDLNRILKGHRKGELTVFTGPTGSGKTTFISEYALDLCSQGVNTLWGSFEISNVRLARVMLTQFAEGRLEDQLDKYDHWADRFEDLPLYFMTFHGQQSIRTVIDTMQHAVYVYDICHVIIDNLQFMMGHEQLSTDRIAAQDYIIGVFRKFATDNNCHVTLVIHPRKEDDDKELQTASIFGSAKASQEADNVLILQDRKLVTGPGKRYLQVSKNRFDGDVGVFPLEFNKNSLTFSIPPKNKARLKKIKDDTGPVAKKPSSGKKGATTQNSEICSGQAPTPDQPDTSKRSK	6 and 7 and 8 and 9	72.3%	4.7%	6.4%
R334Q TWINKLE (enzyme, human, UniProt Q96RR1 43-684, looked up) ETLQALDMPVLPVTATEIRQYLRGHGIPFQDGHSCLRALSPFAESSQLKGQTGVTTSFSLFIDKTTGHFLCMTSLAEGSWEDFQASVEGRGDGAREGFLLSKAPEFEDSEEVRRIWNRAIPLWELPDQEEVQLADTMFGLTKVTDDTLKRFSVRYLRPARSLVFPWFSPGGSGLRGLKLLEAKCQGDGVSYEETTIPRPSAYHNLFGLPLISRRDAEVVLTSRELDSLALNQSTGLPTLTLPRGTTCLPPALLPYLEQFRRIVFWLGDDLRSWEAAKLFARKLNPKRCFLVQPGDQQPRPLEALNGGFNLSRILRTALPAWHKSIVSFRQLREEVLGELSNVEQAAGLRWSRFPDLNRILKGHRKGELTVFTGPTGSGKTTFISEYALDLCSQGVNTLWGSFEISNVRLARVMLTQFAEGRLEDQLDKYDHWADRFEDLPLYFMTFHGQQSIRTVIDTMQHAVYVYDICHVIIDNLQFMMGHEQLSTDRIAAQDYIIGVFRKFATDNNCHVTLVIHPRKEDDDKELQTASIFGSAKASQEADNVLILQDRKLVTGPGKRYLQVSKNRFDGDVGVFPLEFNKNSLTFSIPPKNKARLKKIKDDTGPVAKKPSSGKKGATTQNSEICSGQAPTPDQPDTSKRSK	7 and 6	55.1%	36.6%	8.3%
L381P TWINKLE (enzyme, human, UniProt Q96RR1 43-684, looked up) ETLQALDMPVLPVTATEIRQYLRGHGIPFQDGHSCLRALSPFAESSQLKGQTGVTTSFSLFIDKTTGHFLCMTSLAEGSWEDFQASVEGRGDGAREGFLLSKAPEFEDSEEVRRIWNRAIPLWELPDQEEVQLADTMFGLTKVTDDTLKRFSVRYLRPARSLVFPWFSPGGSGLRGLKLLEAKCQGDGVSYEETTIPRPSAYHNLFGLPLISRRDAEVVLTSRELDSLALNQSTGLPTLTLPRGTTCLPPALLPYLEQFRRIVFWLGDDLRSWEAAKLFARKLNPKRCFLVRPGDQQPRPLEALNGGFNLSRILRTALPAWHKSIVSFRQLREEVLGEPSNVEQAAGLRWSRFPDLNRILKGHRKGELTVFTGPTGSGKTTFISEYALDLCSQGVNTLWGSFEISNVRLARVMLTQFAEGRLEDQLDKYDHWADRFEDLPLYFMTFHGQQSIRTVIDTMQHAVYVYDICHVIIDNLQFMMGHEQLSTDRIAAQDYIIGVFRKFATDNNCHVTLVIHPRKEDDDKELQTASIFGSAKASQEADNVLILQDRKLVTGPGKRYLQVSKNRFDGDVGVFPLEFNKNSLTFSIPPKNKARLKKIKDDTGPVAKKPSSGKKGATTQNSEICSGQAPTPDQPDTSKRSK	6 and 7 and 5	28.6%	33%	26.9%
W315L TWINKLE (enzyme, human, UniProt Q96RR1 43-684, looked up) ETLQALDMPVLPVTATEIRQYLRGHGIPFQDGHSCLRALSPFAESSQLKGQTGVTTSFSLFIDKTTGHFLCMTSLAEGSWEDFQASVEGRGDGAREGFLLSKAPEFEDSEEVRRIWNRAIPLWELPDQEEVQLADTMFGLTKVTDDTLKRFSVRYLRPARSLVFPWFSPGGSGLRGLKLLEAKCQGDGVSYEETTIPRPSAYHNLFGLPLISRRDAEVVLTSRELDSLALNQSTGLPTLTLPRGTTCLPPALLPYLEQFRRIVFWLGDDLRSLEAAKLFARKLNPKRCFLVRPGDQQPRPLEALNGGFNLSRILRTALPAWHKSIVSFRQLREEVLGELSNVEQAAGLRWSRFPDLNRILKGHRKGELTVFTGPTGSGKTTFISEYALDLCSQGVNTLWGSFEISNVRLARVMLTQFAEGRLEDQLDKYDHWADRFEDLPLYFMTFHGQQSIRTVIDTMQHAVYVYDICHVIIDNLQFMMGHEQLSTDRIAAQDYIIGVFRKFATDNNCHVTLVIHPRKEDDDKELQTASIFGSAKASQEADNVLILQDRKLVTGPGKRYLQVSKNRFDGDVGVFPLEFNKNSLTFSIPPKNKARLKKIKDDTGPVAKKPSSGKKGATTQNSEICSGQAPTPDQPDTSKRSK	7	87.1%	–	12.9%

— paper PMC6423418 (Human Molecular Genetics, 2018)
